The values below come from article PMC10702856 (Antibody Therapeutics, 2023).

The target in experiment [1] is SARS-CoV-2 S receptor binding domain, Ancestral (SARS-CoV-2, Ancestral strain, UniProt P0DTC2).
In experiment [2] the target is ADDoCoV (ADDomer-COVID-19 vaccine) nanoparticle (human adenovirus serotype Ad3 | …, UniProt P0DTC2).

B1: ADAH14 (VHH)
VHH: QVQLQESGGGLVQAGGSLRLSCAASGSYFFHALMGWFRQAPVKEREFVASITAVPGATYYRRCTDSVKGRFTISRDNAKNTVYLQMNSLKPEDTAVYYCALATHSNRHTPITYWGQGTQVTVSS
In the case of B1, the binding result in experiment [1] and in experiment [2] was “binds” each time.

B2: ADAH15 (VHH)
VHH: QVQLQESGGGLVQAGGSLRLSCAASGTTYLAANMGWFRQAPGKEREFVAAITFFHNPTVYYADSVKGRFTISRDNAKNTVYLQMNSLKPEDTAVYYCAATVLVRDRIHFSHSIGIRYWGQGTQVTVSS
As to B2, the binding result in experiment [1] and in experiment [2] was “binds” throughout.
